Assay [1] deals with Influenza HA-Trimer (exemplary fusion protein comprising HA (Influenza A virus A/California/07/2009-pdm (H1N1))). Briefly: biolayer interferometry (Octet), […].
Assay [2] concerns the target recombinant HA produced from insect cells. Briefly: ForteBio Octet molecular interaction analysis.
Assay [3] deals with Rabies G-Trimer (CTN-1 Strain) (ectodomain of rabies CTN-1 strain G protein fused in frame to Trimer-Tag) (Rabies virus CTN-1 strain).
Assay [4] has the same target. This is another data set of the same source.
Assay [5] shares this target. The source holds these as a separate data set.

pKd: −log10 of the molar value. “And” between values parts separate entries of the source, which are not always exact repeats. Equal entries are not always repeated. Where two headings read alike, the source gives them in different places.

Take “CR6261 (broadly neutralizing anti-HA antibody, ACRO Biosystems)”: the negative-log Kd (pKd) in assay [1] is greater than 12.00; in assay [2], 8.42.

Regarding HDCV, the CTN-1 Specific IgG titer (End point) in assay [3] was 57 and 33. Moreover, the p75 Competitive titer IC50 GMT is 87 in assay [4]; 30 and 25 in assay [5].
